From patent US20230348578A1, “CONFORMATION-SPECIFIC ANTIBODIES THAT BIND TAU PROTEIN AND USES THEREOF” (Beth Israel Deaconess Medical Center, Inc., priority 2020, published 2023)
Residue numbers refer to the chain shown, from its start.

B1: HT1: humanized cis-pThr231-tau mAb; heavy chain variable domain SEQ ID NO: 25, light chain variable domain SEQ ID NO: 16 (antibody, V domains shown)
VH: QVQLVQSGAELKKPGASVKMSCKASGYTFTSYWIHWVKQRPGQGLEWIGVIDPSDSYTRYNQKFKGRATLTVDTSASTAYMQLSSLTSEDSAVYYCTTWEVDYWGQGTTVTVSS
VL: DVVMTQSPLSLPVTLGQPASISCRSSQSLVHSDGNTYLHWYLQKPGQSPQLLIYKVSNRFSGVPDRFSGSGSGTDFTLKISRVEAEDVGVYFCSQSTHVPWTFGGGTKVEIK
B2: HT2: humanized cis-pThr231-tau mAb; heavy chain variable domain SEQ ID NO: 26, light chain variable domain SEQ ID NO: 16 (antibody, V domains shown)
VH: B1 VH with L11V, Q82E, T87R, S91T, T109L
VL: B1 VL
B3: HT9: humanized cis-pThr231-tau mAb; heavy chain variable domain SEQ ID NO: 25, light chain variable domain SEQ ID NO: 19 (antibody, V domains shown)
VH: B1 VH
VL: B1 VL with F92Y
B4: HT17: humanized cis-pThr231-tau mAb; heavy chain variable domain SEQ ID NO: 28, light chain variable domain SEQ ID NO: 17 (antibody, V domains shown)
VH: B1 VH with L11V, M20V, K38R, A68V, L70I, V72R, Q82E, T87R, S91T, T109L
VL: B1 VL with H39N
B5: HT15: humanized cis-pThr231-tau mAb; heavy chain variable domain SEQ ID NO: 26, light chain variable domain SEQ ID NO: 17 (antibody, V domains shown)
VH: B1 VH with L11V, Q82E, T87R, S91T, T109L
VL: B1 VL with H39N
B6: HT7: humanized cis-pThr231-tau mAb; heavy chain variable domain SEQ ID NO: 27, light chain variable domain SEQ ID NO: 18 (antibody, V domains shown)
VH: B1 VH with L11V, M20V, K38R, A68V, Q82E, T87R, S91T, T109L
VL: B1 VL with F60D
B7: HT6: humanized cis-pThr231-tau mAb; heavy chain variable domain SEQ ID NO: 26, light chain variable domain SEQ ID NO: 18 (antibody, V domains shown)
VH: B1 VH with L11V, Q82E, T87R, S91T, T109L
VL: B1 VL with F60D
B8: HT16: humanized cis-pThr231-tau mAb; heavy chain variable domain SEQ ID NO: 27, light chain variable domain SEQ ID NO: 17 (antibody, V domains shown)
VH: B1 VH with L11V, M20V, K38R, A68V, Q82E, T87R, S91T, T109L
VL: B1 VL with H39N
B9: HT13: mouse-human chimera control antibody; heavy chain variable domain SEQ ID NO: 24, light chain variable domain SEQ ID NO: 15 (antibody, V domains shown)
VH: B1 VH with V5Q, S7P, K12V, R67K, A76S, V110L
VL: B1 VL with S7T, T14S, Q17D, P18Q, Q50K, V83L, V88L, V109L
B10: HT11: humanized cis-pThr231-tau mAb; heavy chain variable domain SEQ ID NO: 27, light chain variable domain SEQ ID NO: 19 (antibody, V domains shown)
VH: B1 VH with L11V, M20V, K38R, A68V, Q82E, T87R, S91T, T109L
VL: B1 VL with F92Y
B11: HT14: humanized cis-pThr231-tau mAb; heavy chain variable domain SEQ ID NO: 25, light chain variable domain SEQ ID NO: 17 (antibody, V domains shown)
VH: B1 VH
VL: B1 VL with H39N
B12: HT4: humanized cis-pThr231-tau mAb; heavy chain variable domain SEQ ID NO: 28, light chain variable domain SEQ ID NO: 16 (antibody, V domains shown)
VH: B1 VH with L11V, M20V, K38R, A68V, L70I, V72R, Q82E, T87R, S91T, T109L
VL: B1 VL
B13: HT12: humanized cis-pThr231-tau mAb; heavy chain variable domain SEQ ID NO: 28, light chain variable domain SEQ ID NO: 19 (antibody, V domains shown)
VH: B1 VH with L11V, M20V, K38R, A68V, L70I, V72R, Q82E, T87R, S91T, T109L
VL: B1 VL with F92Y
B14: HT5: humanized cis-pThr231-tau mAb; heavy chain variable domain SEQ ID NO: 25, light chain variable domain SEQ ID NO: 18 (antibody, V domains shown)
VH: B1 VH
VL: B1 VL with F60D
B15: C113: previously described murine cis-pTau monoclonal antibody (U.S. Pat. No. 9,688,747); SEQ ID NO: 24 and 15; positive control (antibody, V domains shown)
VH: B1 VH with V5Q, S7P, K12V, R67K, A76S, V110L
VL: B1 VL with S7T, T14S, Q17D, P18Q, Q50K, V83L, V88L, V109L
notes: previously described murine cis-pTau monoclonal antibody (U.S. Pat. No. 9,688,747); positive control

Tested on: mice (C57/BL6) after 3-hit repetitive TBI
Test: 3-hit repetitive mild TBI in mice, elevated plus maze
Type: in vivo
Details: risk-taking behavior, HT13 chimera control = 1.0
Protocol: (§1) The binding affinity of selected humanized antibody clones was determined by Biacore assay using a wild-type P-tau peptide and its pure cis or cis-locked, and pure trans counterparts. The […] of the selected humanized cis mAb variants was determined by assessing their ability to eliminate cis P-tau in stressed neurons in cell cultures. Functional restoration of selected clones was determined by their ability to restore risk-taking behavior after 3-hit or 7-hit repetitive TBI in mice, as assayed by elevated plus maze.
(§2) An initial sign of brain dysfunction following traumatic brain injury (TBI) is an increase in risk-taking behavior. To determine the therapeutic effect of the herein described cis pT231-tau monoclonal antibodies in restoring brain function 11-week old mice (C57/BL6) mice were subjected to elevated plus maze behavioral assays designed to evaluate risk-taking behavior following repetitive mild TBIs. The behavioral assays were performed as previously described in Walf, Nature Protocols 2(2): 322-328, 2007 (FIG. 7). […] All other mice sustained mild TBI (rmTB) either three times, once a day for three consecutive days, or seven times once a day for five consecutive days and two consecutive times on days 8 and 9. In the 3-hit TBI experiment (FIG. 8A), nine groups of mice received three doses (250 ug/mouse) via intraperitoneal injection of either IgG control (n=10 mice) or one of the following humanized cis pT231-tau monoclonal antibody variants C113 (n=5 mice), HT1 (n=10 mice), HT2 (n=10), HT3 (n=10), HT8 (n=5), HT10 (n=10), HT13 (n=15), HT18 (n=4). Treatment with IgG or humanized cis-pT231-tau monoclonal antibody was administered on Days 1, 2 and 7. Behavioral evaluation was performed on Day 13. In the 7-hit TBI experiment (FIG. 8B), one group sustained TBI only (n=10 mice). The other groups received 8 doses (250 ug/mouse) via intraperitoneal injection of either IgG control (n=10 mice) or one of the following humanized cis pT231-tau monoclonal antibody variants C113 (n=10 mice), HT2 (n=10), HT3 (n=10), HT8 (n=10), HT10 (n=10), HT13 (n=10), HT18/HC2 (n=10). Treatment with IgG or humanized cis-pT231-tau monoclonal antibody was administered on Days 1, 2, 3, 5, 8, 10, 13 and 20. Behavioral evaluation was performed on Day 27. The elevated plus maze was used to assess anxiety/risk-taking behavior and carried out as described in Kondo et al, Nature 523, 431-436, 2015. Briefly, the elevated plus maze consists of two white open arms (30×5 cm) and two white closed arms of the same size with 15-cm-high walls, extended out opposite from each other from a central platform (decision zone) to create a plus shape. The entire apparatus is raised 38 cm above the floor (Lafayette Instruments). Mice are placed on the center platform of the maze, facing a closed arm, and allowed to explore the apparatus for 5 min. The maze is cleaned between subjects with a weak ethanol solution and dried. A computer-assisted video tracking system (Noldus Ethovision) recorded the total time spent in the center platform (decision zone), and the two closed or ‘safe’ arms and the two open or ‘aversive’ arms. Mice with lower levels of anxiety/risk-taking behavior spend less time in the open arms.

Molecule | Functional restoration 3-hit TBI
B1 | 1.5
B2 | 1.4

Biological target: cis pT231-tau (P-tau peptide, pure cis or cis-locked)
Test: Biacore assay of binding affinity of humanized cis mAb variants
Details: not given
Text: We next started to characterize and select lead humanized mAbs. We expressed and purified humanized mAb variants using a CHO expression system. We transfected over 45 plasmid DNA pairs of heavy and light chain cDNAs into CHO cells to express over 225 humanized cis mAb variants in various combinations. To evaluate the target binding specificity and affinity of our mouse mAbs, we established a simple and quantitative ELISA to screen the clones using a wild-type P-tau peptide and its pure cis or cis-locked, and pure trans counterparts and determined the binding affinity for selected clones using Biacore assays. We screened over 200 humanized cis mAb variants. […] Furthermore, one-tenth of humanized cis mAb variants were also able to recognize cis P-tau in human AD and TBI brains based on immunostaining analysis.
as §1

Kd | Molecule
1.89 nM | B3
4940 nM | B4
33.4 nM | B5
10.8 nM | B6
6.48 nM | B7
3.26 nM | B8
1.26 nM | B9
3.99 nM | B10
30.2 nM | B11
2.42 nM | B12
3.55 nM | B13
1.83 nM | B1
6.91 nM | B14
1.62 nM | B2

Tested on: mice (C57/BL6) after 7-hit repetitive TBI
Test: 7-hit repetitive mild TBI in mice, elevated plus maze
Type: in vivo
Details: risk-taking behavior, HT13 chimera control = 1.0
Protocol: as §1, §2

Molecule | Functional restoration 7-hit TBI
B2 | 1.7

Biological target: cis P-tau (Homo sapiens, UniProt P10636)
Test: Elimination of cis P-tau in cultured neurons stressed by hypoxia
Type: cell-based
Design: endogenous in cells
Details: 2.5 μg/ml, 5 μg/ml and 10 μg/ml
Protocol: as §1
Cultured neurons were subjected to neuron stress by hypoxia in the presence or absence of different concentration of humanized antibody variants, followed by immunoblotting analysis to analyze cis P-tau levels in the stressed neurons, the results of which are provided in FIGS. 2-4. FIG. 2 is an immunostaining image showing the ability of humanized cis pT231-tau monoclonal antibody variants to eliminate cis P-tau in neurons under hypoxic conditions. Cis P-tau levels are reported in red and blue reports nuclear staining (Hoechst) to represent all neurons in the experiment. […] Cis P-tau levels are reported in red and blue reports nuclear staining (Hoechst) to represent all neurons in the experiment. […] IgG is a negative control. The cis-pTau monoclonal antibody C113 serves as a positive control.

Chain of cis P-tau (P10636 1-441 isoform P10636-8): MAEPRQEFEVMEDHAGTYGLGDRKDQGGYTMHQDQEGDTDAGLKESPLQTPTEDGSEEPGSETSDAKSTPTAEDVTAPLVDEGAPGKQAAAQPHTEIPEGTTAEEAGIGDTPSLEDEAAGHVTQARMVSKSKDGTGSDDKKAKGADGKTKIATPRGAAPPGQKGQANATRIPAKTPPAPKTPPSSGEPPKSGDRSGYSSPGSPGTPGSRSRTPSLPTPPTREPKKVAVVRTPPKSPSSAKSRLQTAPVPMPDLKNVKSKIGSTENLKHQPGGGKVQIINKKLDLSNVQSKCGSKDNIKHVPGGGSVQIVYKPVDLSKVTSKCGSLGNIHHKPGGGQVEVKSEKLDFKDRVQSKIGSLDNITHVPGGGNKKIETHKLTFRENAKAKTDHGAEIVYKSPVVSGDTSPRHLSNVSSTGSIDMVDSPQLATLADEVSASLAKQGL

elimination of cis P-tau in neurons under hypoxic conditions (images) | rank in cis P-tau elimination assay (FIG. 4) | Molecule
elimination of cis P-tau | – | B15
elimination of cis P-tau | – | B9
elimination of cis P-tau | – | B1
elimination of cis P-tau | top four performing variants | B2
